Laboratory results: the supplement of paper PMC7877785
± gives the uncertainty stated by the source.

Experiment: self-splicing fitness, log relative to wild type (ln ratio); higher = more splicing; Tetrahymena group I intron in knt gene, E. coli kanamycin selection, DiMSum; sequences stand for … in CUCUCU…GGAGGGAAAAGUUAUCAGGCAUGCACCUGGUAGCUAGUCUUUAAACCAAUAGAUUGCAUCGGUUUAAAAGGCAAGACCGUCAAAUUGCGGGAAAGGGGUCAACAGCCGUUCAGUACCAAGUCUCAGGGGAAACUUUGAGAUGGCCUUGCAAAGGGUAUGGUAAUAAGCUGACGGACAUGGUCCUAACCACGCAGCCAAGUCCUAAGUCAACAGAUCUUCUGUUGAUAUGGAUGCAGUUCACAGACUAAAUGUCGGUCGGGGAAGAUGUAUUCUUCUCAUAAGAUAUAGUCGGACCUCUCCUUAAUGGGAGCUAGCGGAUGAAGUGAUGCAACACUGGAGCCGCUGGGAACUAAUUUGUAUGCGAAAGUAUAUUGAUUAGUUUUGGAGUACUCGUGGUCG
Procedure, shortened: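 Fitness was computed with DiMSum as the error-weighted combination of replicate fold changes, kanamycin versus none, each normalised to wild type. The library randomised all eight intron nucleotides of the P1ex region, with the intron placed in the knt kanamycin-resistance gene on pET-22b(+) in E. coli BL21(DE3). Six replicate transformations were grown overnight at 37°C or 30°C on LB agar with or without 25 μg/mL kanamycin, plus 100 μg/mL carbenicillin, 50 μM IPTG and 0.2% rhamnose. Pooled colonies were amplicon-sequenced on an Illumina HiSeq 2500.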

Sequence | self-splicing fitness (ln) (30 °C) | self-splicing fitness (ln) (37 °C)
GUAUAGCAAUAUUACGCAUC | -2.15 ± 0.17 | -0.982 ± 0.13
CCUUAGCAAUAUUACGAUUG | -1.85 ± 0.098 | -0.965 ± 0.1
CCCAAGCAAUAUUACGUUUG | -4.1 ± 0.21 | -2.82 ± 0.21
UAGGAGCAAUAUUACGAGGU |  | -2.42 ± 0.32
GAACAGCAAUAUUACGCUGA | -3.29 ± 0.2 | -2.04 ± 0.14
GCUAAGCAAUAUUACGUAAC | -1.39 ± 0.11 | -0.735 ± 0.14
GGCAAGCAAUAUUACGUCAA | -1.84 ± 0.14 | -0.756 ± 0.12
CUAAAGCAAUAUUACGCGCA | -2.92 ± 0.23 | -1.64 ± 0.33
UAAUAGCAAUAUUACGCAUG | -1.4 ± 0.085 | 0.553 ± 0.13
GGUCAGCAAUAUUACGAGUA | -2.09 ± 0.18 | -1.32 ± 0.14
UACAAGCAAUAUUACGCAUC | -2.99 ± 0.16 | -2.02 ± 0.18
UAACAGCAAUAUUACGCAAG | -2.08 ± 0.078 | -2.23 ± 0.074
GCAAAGCAAUAUUACGUUAU | -1.73 ± 0.084 | -1.54 ± 0.092
UUGUAGCAAUAUUACGUUAG | -2.36 ± 0.25 | -1.28 ± 0.21
AAGCAGCAAUAUUACGUUUG | -3.04 ± 0.13 | -1.73 ± 0.14
GCUCAGCAAUAUUACGAGGG | -2.38 ± 0.16 | -2.57 ± 0.25
AUGCAGCAAUAUUACGCUGA | -2.82 ± 0.19 | -1.35 ± 0.13
GAUUAGCAAUAUUACGUUAC | -2.63 ± 0.19 | -2.53 ± 0.23
AUAUAGCAAUAUUACGAGCU | -2.13 ± 0.1 | -1.11 ± 0.1
CCACAGCAAUAUUACGGGGA | -3.12 ± 0.19 | -2.51 ± 0.17
UAAAAGCAAUAUUACGUUAU | -3.59 ± 0.16 | -2.41 ± 0.13
CCUAAGCAAUAUUACGCGAU | -3.49 ± 0.24 | -2.31 ± 0.27

Sequence | self-splicing fitness (ln) (30 °C) | self-splicing fitness (ln) (37 °C)
CACUAGCAAUAUUACGCAAC |  | -2.5 ± 0.29
GCGAAGCAAUAUUACGGUGG | -4.24 ± 0.23 | -3.08 ± 0.27
CUGAAGCAAUAUUACGCAAG | -0.812 ± 0.12 | 0.142 ± 0.18
CAUUAGCAAUAUUACGAACC | -3.51 ± 0.46 | -1.98 ± 0.34
AAUUAGCAAUAUUACGAGCU | -1.02 ± 0.12 | -0.169 ± 0.15
UAGAAGCAAUAUUACGGCUU | -3.59 ± 0.48 | -1.67 ± 0.23
CUACAGCAAUAUUACGUUGG | -3.51 ± 0.15 | -2.45 ± 0.14
UGCCAGCAAUAUUACGGCGG | -3.73 ± 0.18 | -1.48 ± 0.13
GAGAAGCAAUAUUACGCCAU | -2.68 ± 0.38 | -1.87 ± 0.35
GCACAGCAAUAUUACGACAC | -0.345 ± 0.078 | 0.29 ± 0.093
CUUCAGCAAUAUUACGUGUG | -1.1 ± 0.061 | -0.859 ± 0.076
CUUAAGCAAUAUUACGUUGA |  | -2.78 ± 0.29
AACUAGCAAUAUUACGUAAU | -1.82 ± 0.098 | -0.948 ± 0.099
AGUCAGCAAUAUUACGACUA | -0.831 ± 0.16 | 0.0945 ± 0.14
UUGUAGCAAUAUUACGUCAU | -2.87 ± 0.18 | -1.63 ± 0.13
UUUUAGCAAUAUUACGUGGG | -1.79 ± 0.2 | -2.27 ± 0.27
AGUAAGCAAUAUUACGAACG | -0.785 ± 0.14 | -0.209 ± 0.18
GACCAGCAAUAUUACGAAAU | -1.34 ± 0.093 | -0.476 ± 0.098
AAAAAGCAAUAUUACGCGGU | -2.38 ± 0.13 | -0.538 ± 0.11
AUCGAGCAAUAUUACGCUGG | -2.78 ± 0.21 | -2.96 ± 0.2
CUAAAGCAAUAUUACGUACA | -2.52 ± 0.14 | -0.872 ± 0.18
